Reference: PMC7241686

Target: HA trimer from A/New Caledonia/20/1999 (H1N1), soluble trimerized HA ectodomain (Influenza A virus A/New Caledonia/20/1999 (H1N1))
Assay: SEC

HA trimer from A/New Caledonia/20/1999 (H1N1), soluble trimerized HA ectodomain (domain or fragment)
stoichiometry N: 3
